Data from the DeepSol protein solubility set.

Assay: soluble on expression in E. coli; label from the status in PepcDB or PDB records
With “AAKVHVDIEADSPFIKSLQKAFPSFEVESLQVTPNDHANARAFSHLATKLIEQETDKDLILDIGSAPSRRMMSTHKYHCVCPMRSAEDPERLDSYAKKLAAASGKVLDREIAGKITDLQTVMATPDAESPTFCLHTDVTCRTAAEVAVYQDVYAVHAPTSLYHQAMKGVRTAYWIGFDTTPFMFDALAGAYPTYATNWADEQVLQARNIGLCAASLTEGRLGKLSILRKKQLKPCDTVMFSVGSTLYTESRKLLRSWHLPSVFHLKGKQSFTCRCDTIVSCEGYVVKKITMCPGLYGKTVGYAVTYHAEGFLVCKTTDTVKGERVSFPVCTYVPSTICDQMTGILATDVTPEDAQKLLVGLNQRIVVNGRTQRNTNTMKNYLLPIVAVAFSKWAREYKADLDDEKPLGVRERSLTCCCLWAFKTRKMHTMYKKPDTQTIVKVPSEFNSFVIPSLWSTGLAIPVRSRIKMLLAKKTKRELIPVLDASSARDAEQEEKERLEAELTREALPPLVPIAPAETGVVDVDVEELEYHAGA” the “soluble on expression in E. coli” value was “not soluble”.
For “APTPAQMPSPTSFSDSIKQLAAETLPKYMQQLNSLDAEMLQKNHDQFATGSGPLRGSITQCQGLMQFCGGELQAEASAILNTPVCGIPFSQWGTIGGAASAYVASGVDLTQAANEIKGLAQQMQKLLSLMHHHHHH”, the “soluble on expression in E. coli” value was “soluble”.
For “MTRVIIDGDACPVVDSVIELTTGTGIFVTILRSFSHYSNKVLPNHVETIYIDDGPDAVDYKIVKLATPEDIVITQDYGLASLLLSKVKIVMHHKGHLYRSSNIDMLLQQRYNNAQIRKQGGRHKGPPPFSKEDKKQFERAFKSVIKQLLEHHHHHH”, the “soluble on expression in E. coli” value was “not soluble”.
In the case of “MGSDKIHHHHHHMRNTDNGVIGSDQTAVMTRLALDELIDQLLHSNALSLKLTANPLVADRAWHLTENTCIRAFSADDPQAKKRAHHALFILYQSWLADPLSPAAANQFHPLLSGIRNYIESEWLRAESKRFHHQRPMLNAGNIVDELRALCQQHPASHHPLFDFLASEASAAQIDYFFKSDSALNLLFFDLVAMGLVGSLPETRAEIAQNLWDEIGQGSTEITHVNLYKDLLKRRNIALPDNHFAHLYEWQGLAGYNAFMLGGVNRQHYYKSLGVMAMTELLDPPQYEKLVAGCRRIGLSERDVHYYAEHITVDIGHADGWLNNVIVPIGKKHPAAMEEVFFGAALRLQTCNDYYDGLLAALQSLGGSLSSHSVPPSE”, the “soluble on expression in E. coli” value is reported as “not soluble”.
With “MSLTTMLEVAKRAGVSKATVSRVLSGNGYVSQETKDRVFQAVEESGYRPNLLARNLSAKSTQTLGLVVTNTLYHGIYFSELLFHAARMAEEKGRQLLLADGKHSAEEERQAIQYLLDLRCDAIMIYPRFLSVDEIDDIIDAHSQPIMVLNRRLRKNSSHSVWCDHKQTSFNAVAELINAGHQEIAFLTGSMDSPTSIERLAGYKDALAQHGIALNEKLIANGKWTPASGAEGVEMLLERGAKFSALVASNDDMAIGAMKALHERGVAVPEQVSVIGFDDIAIAPYTVPALSSVKIPVTEMIQEIIGRLIFMLDGGDFSPPKTFSGKLIRRDSLIAPSREGHHHHHH” the “soluble on expression in E. coli” value was “soluble”.
For “SMVQSSGPMDVTSLTEELKKLAKQGWYWGPITRWEAEGKLANVPDGSFLVRDSSDDRYLLSLSFRSHGKTLHTRIEHSNGRFSFYEQPDVEGHTSIVDLIEHSIGDSENGAFCYSRSRLPGSATYPVRLTNPVSRFMQVRS”, the “soluble on expression in E. coli” value was “soluble”.
With “MYTAENAPGVAVLLSGDADVPGPLTGLPTHQDNLDTVIGRYSRLIVVGADADLGAVLTRLLRTDRLDVEVGYVPRRRSPATRAYRLPAGRRAARRARCGVARRVPLIRDETGSVIVGRAQWLPAEEQALIHGEAVVDDTVLFDGDVAGVCIEPTLTLPGLRAAVDGAGKWRRWIGGRAAQLGTTGAAVLRDGVAAPRPVRRSTFYRNVEGWLLVR” the “soluble on expression in E. coli” value was “soluble”.
In the case of “MGSDKIHHHHHHSDSLQSAYDTDATYRDKAGKKESGYTATFTETCNSENDVQIIVDYTVEPNNKSDVEIFQDRMDIIKDNTNASDIYADGGYYGENVINKANSKGIEIQLHYTDMTGKTAPEGQLPAHHFVFNKDMEMVQCPGGQIPSSSKYNSKTKITTSHFPKEVCNNCPHRCNCPLKEQKRDMVVRISKKSILASQVRETVNDPHIKHENISKRAAIEGTNSAIKGCQGAKRLRVRGKIKCTLQIGFKVIGHNFKQIFRALTKQIKKPKIKTKGLLCPNPN”, the “soluble on expression in E. coli” value is reported as “not soluble”.
For “MQLNMMLENRDYTLVIDHSASMAKPDGNSENSKWQAIQESTFALARKCEEFDSDGITVYLFSKTFQRYDYVNSAKVKQLFAENSPSETTNLVGVLQDAINSYFQRKSLGKTKPAGEVILVITDGAPVDSQAVCEVIIKATHLVESANELRISIIQVGSDSHATKFLKALDDHLQSVGAKFDICDTITLDELEITNLSDVLMKAITDLEHHHHHH”, the “soluble on expression in E. coli” value was “soluble”.
For “MKGHCHCGAVRWQSDGKVAWSCYCHCADCRRNCAAPVTAFFGLPHESVTWSGDAPRIYRSTDRVERLFCGTCGTQMAYRNADDRVNIHLYTATLEDPSALPPRFHVFHTARLPWLDLQDDLPRFDRTAG”, the “soluble on expression in E. coli” value was “not soluble”.
With “MSLTYHIKTIGNNIDQIALDEIGEGFLVNQVSEAESDAFICRAQPFHDYEFSKALLAIGRAGAGFNNIPIEKCASKGIVVFNAPGGNANAVKELVLSMMIFGTRNLKPANKWLTGQKGDDNTIDGAVEHGKKAFSGSEISGKTLGVIGLGNIGSKVANDAQRLGMRVIGYDPYLSIEHAWNLSHHVKRVNDLAEIFEKADYITVHTPATDETTKMLNWKNLSKCKKGVILLNYARDEITDKEAVLKAIDEGIVRFFGTDFGSEKFYHHPQVFLTPHLGGSTAEASLNCTRMALDSVQTYLKTGEIINSVNFPRVLQELNTPYRVTLINKNVPNVVAQISLAVAAENINIANIVNRGQGDYAYTLLDLDEKDEGKLAALVSRFEAADNIIRVRLIENQSLEGHHHHHH” the “soluble on expression in E. coli” value was “soluble”.
For “MGSDKIHHHHHHMRIVNDVKKILFLAANPQNTVRLRLDKEVEEIRTTLQLSVNRDRFVIESRGAVRPDDLQQYMYNLKPQIVHFSGHGGGEYGLAFEDENGAEQPVSTDALAKFFQLFAGEVNCVVLNACYASVQAEAIAQYIPYVVGMNQAIGDEAARQFAQGFYRAIWDNRSIEDAFASGVNAIALDGIPEDLTPVLLRQADRVTTQTIPSNSVSLESPDGQVRIDSRFYVHSSYEERCYAEVKKPGSLIRIKSPHNMGKSSLMVRVLGYAAQLGYRTVTLNLEQVNQKFFNDLDKYMQWFCASVGKPLGVRIKIEEYWDDIFGANDNSTDYFEKYLLDDTEPPLVVAIDNFDRVFKYPDIETDFCGLLRGWHERSRSNQLWGKLRFVIVYSQEPYLQKDINQSPFNVGLPIELGEFTTAQVQELIRLHGLDWSGQFVKQFMDLIGGHPYLVRSALYHIAAGDLTLEEFLRTAPTEAGIYSDYLLGHLKSLEDYPTLGAAMKTVVTSEFPVRLRSEEAFRVWLCGLRITSSPDANCIVNIFAIA”, the “soluble on expression in E. coli” value was “not soluble”.
For “RRHKNKNPFHFNSKRFQTLFKNQYGHVRVLQRFNKRSQQLQNLRDYRILEFNSKPNTLLLPHHADADYLIVILNGTAILTLVNNDDRDSYNLQSGDALRVPAGTTYYVVNPDNDENLRMITLAIPVNKPGRFESFFLSSTQAQQSYLQGFSKNILEASYDTKFEEINKVLFGREEGQQQGEERLQESVIVEISKKQIRELSKHAKSSSRKTISSEDKPFNLRSRDPIYSNKLGKLFEITPEKNPQLRDLDVFLSVVDMNEGALFLPHFNSKAIVVLVINEGEANIELVGIKEQQQRQQQEEQPLEVRKYRAELSEQDIFVIPAGYPVVVNATSDLNFFAFGINAENNQRNFLAGSKDNVISQIPSQVQELAFPGSAKDIENLIKSQSESYFVDAQPQQKEEGNKGRKGPLSSILRAFY”, the “soluble on expression in E. coli” value was “soluble”.
In the case of “MGSDKIHHHHHHMGKLVLAAKVSHVPSLMLSETSDSPLRQARAGAVAALRELGRRAKEREVTTFVVFDTHWLSNFGYHINANAQHRGSFTSHEAPHMIQDLRYDLPGDPALAQAIAAEAQSHGLKVLAHQVPTLGLEYGTIVPMHYLNSDGWAKIVSIASPLFTSIEESRALGEATRRAIDASDERVAILASGSLSHRLWPNKDLGPDAWTTIASEFNRQVDLRVLQLWQERRYREFTAMLPDYAVKCNGEGGMADTVMLFAALGWDDYTGEAEPLCDYFPSSGSGQVNVEFHVS”, the “soluble on expression in E. coli” value is reported as “not soluble”.
For “MQRGKVKWFNNEKGYGFIEVEGGSDVFVHFTAIQGEGFKTLEEGQEVSFEIVQGNRGPQAANVTKEA”, the “soluble on expression in E. coli” value was “soluble”.
